Test results taken from US20110091477A1 (Genentech, published 2011).

T1: factor XIIa (UniProt P00748 20-615, limits assumed)
T1 construct: also called FXIIa; coagulation factor XIIa
T1 sequence (looked up): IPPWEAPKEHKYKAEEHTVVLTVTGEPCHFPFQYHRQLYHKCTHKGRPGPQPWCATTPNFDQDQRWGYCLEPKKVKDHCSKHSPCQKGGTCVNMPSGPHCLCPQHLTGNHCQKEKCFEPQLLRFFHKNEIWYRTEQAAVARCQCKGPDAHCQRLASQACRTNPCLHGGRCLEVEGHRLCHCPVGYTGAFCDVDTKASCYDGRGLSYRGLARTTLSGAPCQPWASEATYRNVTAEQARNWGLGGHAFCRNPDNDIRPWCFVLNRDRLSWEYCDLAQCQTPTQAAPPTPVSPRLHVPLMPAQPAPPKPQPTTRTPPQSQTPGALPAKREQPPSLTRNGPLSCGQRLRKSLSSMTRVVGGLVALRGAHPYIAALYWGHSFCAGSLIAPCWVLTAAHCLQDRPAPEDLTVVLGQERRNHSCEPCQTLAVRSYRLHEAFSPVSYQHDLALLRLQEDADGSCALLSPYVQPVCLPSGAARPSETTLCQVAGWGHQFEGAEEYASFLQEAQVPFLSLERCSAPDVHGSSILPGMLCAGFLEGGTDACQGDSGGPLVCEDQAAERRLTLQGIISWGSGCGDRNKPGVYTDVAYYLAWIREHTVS

T2: matriptase (UniProt Q9Y5Y6 615-855, limits assumed)
T2 sequence (looked up): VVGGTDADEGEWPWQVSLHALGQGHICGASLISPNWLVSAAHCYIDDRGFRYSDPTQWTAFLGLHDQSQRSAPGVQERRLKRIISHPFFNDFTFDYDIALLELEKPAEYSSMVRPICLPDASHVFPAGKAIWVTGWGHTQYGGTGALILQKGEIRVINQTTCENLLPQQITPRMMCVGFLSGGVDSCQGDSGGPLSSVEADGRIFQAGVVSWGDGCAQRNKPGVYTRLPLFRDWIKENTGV

T3: HGFA (Val373-Ser655) (human, UniProt Q04756 373-655)
T3 construct: a tag is not described; also called human HGFA
T3 sequence: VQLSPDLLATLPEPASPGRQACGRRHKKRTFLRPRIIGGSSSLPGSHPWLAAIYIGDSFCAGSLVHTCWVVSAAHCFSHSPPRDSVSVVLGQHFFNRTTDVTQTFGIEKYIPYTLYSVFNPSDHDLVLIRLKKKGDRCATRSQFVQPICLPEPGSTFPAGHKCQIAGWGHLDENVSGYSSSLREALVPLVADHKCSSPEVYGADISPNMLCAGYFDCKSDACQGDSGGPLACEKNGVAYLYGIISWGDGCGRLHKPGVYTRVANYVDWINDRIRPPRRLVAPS


Experiments:
factor XIIa = molecular target: T1, factor XIIa; assay: direct binding ELISA on coated factor XIIa, anti-human antibody HRP conjugate, OD 450 nm
Method: (§1) FIG. 9: (a) Antibody specificity. In a direct binding ELISA, 96-well plates were coated with […] of HGFA, matriptase (Kirchhofer et al. (2003) J Biol Chem 278:36341-36349), urokinase (American Diagnostica), or factor XIIa (American Diagnostica) and incubated with […] of anti-HGFA antibodies in PBS, 0.05% (v/v) Tween-20 (PBT) buffer. After washing, bound antibodies were detected by addition of anti-human antibody HRP conjugate (diluted 1:2,500 in PBT buffer) and TMB substrate. Absorbance at 450 nm was measured on a microplate reader.
(§2) Competition HGFA binding ELISA experiments: For binding specificity measurements, 96-well Maxisorp plates were coated with 2 μg/ml of HGFA, matriptase, urokinase-type plasminogen activator or factor XIIa and incubated with 10 μg/ml of anti-HGFA IgG in PBST buffer for at least 1 hour at room temperature. The plates were washed with PBT buffer and bound antibodies were detected with anti-human antibody HRP conjugate diluted 1:2500 in PBST buffer, developed with TMB substrate for approximately 5 minutes, quenched with 1 M H₃PO₄, and absorbance was measured on a microplate reader at 450 nm.

[1] = molecular target: urokinase-type plasminogen activator (UniProt P00749 21-431, limits assumed); assay: direct binding ELISA on coated urokinase, anti-human antibody HRP conjugate, OD 450 nm
Method: as §1, §2

matriptase = molecular target: T2, matriptase; assay: direct binding ELISA on coated matriptase, anti-human antibody HRP conjugate, OD 450 nm
Method: as §1, §2

HGFA (Val373-Ser655) [2] = molecular target: T3, HGFA (Val373-Ser655); assay: SPR (BIAcore 3000), IgG captured on anti-human IgG, HGFA injected, 25 C
Excerpt: (§3) Antibody reformatting and determination of dissociation rate constants to HGFA: Anti-HGFA Fabs were reformatted into human IgG1 by cloning the VL and VH regions of individual clones into LPG3 and LPG4 vector, respectively (Liang et al, 2007). The full-length antibodies were transiently expressed in Chinese Hamster Ovary cells and purified on a protein-A column. To determine binding affinities of the reformatted anti-HGFA antibodies, surface plasmon resonance measurements on a BIAcore™-3000 instrument (GE Health Care, NJ) were performed. Rabbit anti-human IgG were chemically immobilized (amine coupling) on CM5 biosensor chips and the anti-HGFA antibodies were captured to give approximately 250 response units (RU). For kinetics measurements, two-fold serial dilutions of HGFA or active site-blocked HGFA (0.9 nM to 250 nM) were injected in PBT buffer at 25° C. with a flow rate of 30 μl/min. HGFA-KQLR (“KQLR” disclosed as SEQ ID NO: 10) was produced by incubating HGFA with two fold molar excess of Ac-KQLR-cmk (“KQLR” disclosed as SEQ ID NO: 10) for 2 hours at room temperature, followed by size exclusion chromatography to remove non-incorporated Ac-KQLR-cmk (“KQLR” disclosed as SEQ ID NO: 10). Association rates (kₒₙ) and dissociation rates (koff) were obtained by using a simple one-to-one Langmuir binding model (BIAEvaluation) and the equilibrium dissociation constants (KD) were calculated (koff/kₒₙ). Longer injection (5 min) of 2-fold serial dilution of HGFA or HGFA-KQLR (“KQLR” disclosed as SEQ ID NO: 10) (1.5 nM to 3000 nM) over captured antibody (Ab40.ΔTrp) sensor chip was implemented to achieve maximal binding (Rₘₐₓ) and reach the steady state.

HGFA (Val373-Ser655) [3] = molecular target: T3, HGFA (Val373-Ser655); assay: SPR (BIAcore 3000), steady state affinity, IgG captured, HGFA injected
Excerpt: (§4) Antibody reformatting and determination of dissociation rate constants to HGFA: Anti-HGFA Fabs were reformatted into human IgG1 by cloning the VL and VH regions of individual clones into LPG3 and LPG4 vector, respectively (Liang et al, 2007). The full-length antibodies were transiently expressed in Chinese Hamster Ovary cells and purified on a protein-A column. To determine binding affinities of the reformatted anti-HGFA antibodies, surface plasmon resonance measurements on a BIAcore™-3000 instrument (GE Health Care, NJ) were performed. Rabbit anti-human IgG were chemically immobilized (amine coupling) on CM5 biosensor chips and the anti-HGFA antibodies were captured to give approximately 250 response units (RU). For kinetics measurements, two-fold serial dilutions of HGFA or active site-blocked HGFA (0.9 nM to 250 nM) were injected in PBT buffer at 25° C. with a flow rate of 30 μl/min. […] Association rates (kₒₙ) and dissociation rates (koff) were obtained by using a simple one-to-one Langmuir binding model (BIAEvaluation) and the equilibrium dissociation constants (KD) were calculated (koff/kₒₙ). […]

HGFA-KQLR complex [4] = molecular target: T4, HGFA-KQLR complex (human, UniProt Q04756 373-655, N-terminal acetyl; C-terminal chloromethyl ketone, reacted with Ser195 and His57 of HGFA; active-site Ser195 and His57 (chymotrypsinogen numbering) covalently linked to Ac-KQLR-cmk); assay: SPR (BIAcore 3000), steady state affinity, IgG captured, HGFA-KQLR complex injected
Excerpt: as §4

HGFA (Val373-Ser655) [5] = molecular target: T3, HGFA (Val373-Ser655); assay: competition ELISA: coated HGFA incubated with increasing Ab40, then 1 nM biotinylated KD1, detected with streptavidin-HRP; blocked ligand KD1; inhibition partial
Excerpt: FIG. 3: Effects of active site inhibitors on antibody binding to HGFA. (a-b, e-f) Surface plasmon resonance (BIAcore) measurements of binding to immobilized antibodies, Ab40 (a-b) or Ab40.ΔTrp (e-f), after co-injection of HGFA (a,e) or HGFA-KQLR (b, f) complex (“KQLR” disclosed as SEQ ID NO: 10). (c) Competition binding (BIAcore) of HGFA to immobilized Ab40 in presence of different concentrations of KD1. (d) Competition binding ELISA measuring binding of HGFA to biotinylated KD1 in the presence of increasing antibody concentrations.
HGFA purification, enzymatic kinetic assays and competition ELISA: HGFA (Val373-Ser655) was produced by use of a baculovirus—insect cell expression system and purified on a Ni-NTA-agarose column, followed by size exclusion chromatography as described (Kirchhofer et al, 2003). […] After addition of S-2266 (0.24 mM˜Kₘ) the linear rates of the increase in absorbance at 405 nm were measured on a kinetic microplate reader (Spectramax-M5, Molecular devices, Sunnyvale, Calif.). […] Various concentrations of Chromogenix S-2266 were added and the linear rates of absorbance increase at 405 nm were measured. […] Biotinylated KD1 that was bound to HGFA was detected by streptavidin-HRP conjugates.

HGFA-KQLR complex [6] = molecular target: T4, HGFA-KQLR complex; assay: SPR
Excerpt: as §4

HGFA (Val373-Ser655) [7] = molecular target: T3, HGFA (Val373-Ser655); assay: SPR
Excerpt: as §4

HGFA-KQLR complex [8] = molecular target: T4, HGFA-KQLR complex; assay: SPR (BIAcore 3000), IgG captured on anti-human IgG, HGFA-KQLR complex injected, 25 C
Excerpt: as §3

| binding result (factor XIIa) | binding result [1] | binding result (matriptase) | Kd (HGFA (Val373-Ser655) [2]) [nM] | koff (HGFA (Val373-Ser655) [2]) [s⁻¹] | kon (HGFA (Val373-Ser655) [2]) [M⁻¹ s⁻¹] | Kd (HGFA (Val373-Ser655) [3]) [nM] | Kd (HGFA-KQLR complex [4]) [nM] | IC50 (read off the curve) (HGFA (Val373-Ser655) [5]) [nM] | fold decrease in affinity compared to HGFA (HGFA-KQLR complex [6]) [fold] | fold improvement in binding affinity over Ab39 (HGFA (Val373-Ser655) [7]) [fold] | Kd (HGFA-KQLR complex [8]) [nM] | koff (HGFA-KQLR complex [8]) [s⁻¹] | kon (HGFA-KQLR complex [8]) [M⁻¹ s⁻¹] | Binder |
| --- | --- | --- | --- | --- | --- | --- | --- | --- | --- | --- | --- | --- | --- | --- |
| no binding | no binding | no binding | 10.3 | 0.0053 | 520000 |  |  |  |  |  |  |  |  | Ab39 (antibody, V domains shown, also called parental Ab39; anti-HGFA antibody Ab39) VH: EVQLVESGGGLVQPGGSLRLSCAASGFTFNGTYIHWVRQAPGKGLEWVGGIYPAGGATYYADSVKGRFTISRDNSKNTLYLQMNSLRAEDTAVYYCAKWWAWPAFDYWGQGTLVTVSS VL: DIQMTQSPSSLSASVGDRVTITCRASQDVSTAVAWYQQKPGKAPKLLIYSASFLYSGVPSRFSGSGSGTDFTLTISSLQPEDFATYYCQQSYTTPPTFGQGTKVEIKR |
|  |  |  |  |  |  | 150 | 161 |  |  |  |  |  |  | Ab40.ΔTrp (antibody, V domains shown, also called Trp96H-deletion mutant of Ab40) VH: EVQLVESGGGLVQPGGSLRLSCAASGFTFNGTYIHWVRQAPGKGLEWVGGIYPAGGATYYADSVKGRFTISRDNSKNTLYLQMNSLRAEDTAVYYCAKWAWPAFDYWGQGTLVTVSS VL: DIQMTQSPSSLSASVGDRVTITCRASQDVSTAVAWYQQKPGKAPKLLIYSASFLYSGVPSRFSGSGSGTDFTLTISSLQPEDFATYYCQQSNRAPATFGQGTKVEIKR |
| no binding | no binding | no binding | 0.16 | 0.000175 | 1.08e+06 |  |  | ~1 | 8 | 64 | 1.35 | 0.00043 | 320000 | Ab40 (antibody, V domains shown, also called anti-HGFA antibody Ab40) VH: EVQLVESGGGLVQPGGSLRLSCAASGFTFNGTYIHWVRQAPGKGLEWVGGIYPAGGATYYADSVKGRFTISRDNSKNTLYLQMNSLRAEDTAVYYCAKWWAWPAFDYWGQGTLVTVSS VL: DIQMTQSPSSLSASVGDRVTITCRASQDVSTAVAWYQQKPGKAPKLLIYSASFLYSGVPSRFSGSGSGTDFTLTISSLQPEDFATYYCQQSNRAPATFGQGTKVEIKR |
